Values quoted from earlier work in publication PMC3883350.
Like-named read-outs stand apart in the source and are kept apart here.

Key:
[1] = target: PACAP (Homo sapiens) (UniProt P18509)
[2] = target: VIP (Homo sapiens) (UniProt P01282)
[3] = target: VIP (Homo sapiens) (UniProt P01282); remark: listed apart in the source
[4] = target: PACAP (Homo sapiens) (UniProt P18509); remark: listed apart in the source
[5] = target: VIP (Homo sapiens) (UniProt P01282); remark: listed apart in the source
[6] = target: PACAP (Homo sapiens) (UniProt P18509); remark: listed apart in the source

UniProt P18509, sequence (P18509 82-129): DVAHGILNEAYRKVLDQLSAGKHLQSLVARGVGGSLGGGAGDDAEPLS
UniProt P01282, sequence (P01282 125-152): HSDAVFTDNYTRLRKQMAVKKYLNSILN

PAC1 (from UniProt P41586)
Kd [1]: 0.5 nM | Kd [2]: > 500 nM

VPAC1 (from UniProt P32241)
Kd [3]: 1 nM | Kd [4]: 1 nM

VPAC2 (from UniProt P41587)
Kd [5]: 1 nM | Kd [6]: 1 nM
